{"source": "patent US20100303785A1", "about": "(RAMOT AT TEL AVIV UNIVERSITY, published 2010)", "binders": {"B1": {"name": "vasoactive intestinal peptide VIP (peptide, UniProt P01282 125-152, looked up)", "peptide": "HSDAVFTDNYTRLRKQMAVKKYLNSILN", "notes": "Negative control peptide in the dot blot; the assay used the peptide itself; also called VIP peptide; control peptide"}}, "molecular_target": "T1, Recombinant tau containing three tubulin binding repeats (3R) (Homo sapiens, UniProt P10636-5 1-410, limits assumed)", "T1 construct": "also called Tau protein 3R; 3R-tau", "T1 sequence (P10636 other isoform, or with tags, fused parts or gaps limits assumed)": "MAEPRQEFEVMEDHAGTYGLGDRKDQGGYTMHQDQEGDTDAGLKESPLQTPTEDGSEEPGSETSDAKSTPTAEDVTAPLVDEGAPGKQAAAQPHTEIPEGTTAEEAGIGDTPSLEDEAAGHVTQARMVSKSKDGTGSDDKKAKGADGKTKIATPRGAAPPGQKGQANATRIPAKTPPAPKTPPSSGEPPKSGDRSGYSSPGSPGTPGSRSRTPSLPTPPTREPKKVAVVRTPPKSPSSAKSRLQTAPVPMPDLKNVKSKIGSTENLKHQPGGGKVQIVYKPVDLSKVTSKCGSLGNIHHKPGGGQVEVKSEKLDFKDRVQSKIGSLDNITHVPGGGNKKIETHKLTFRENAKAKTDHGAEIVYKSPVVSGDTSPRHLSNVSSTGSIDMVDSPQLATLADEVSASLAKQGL", "test": "dot blot: peptide on nitrocellulose, incubated with 3R tau, detected with tau5 antibody", "protocol": "The membrane was further incubated with 2 μM tau-three microtubule binding domain repeats (1.5 hr, room temperature). The non-specific sites were blocked by soaking in a blocking solution (10 mM Tris, 6 mM NaCl, 0.05% Tween 20) that was supplemented with 5% low-fat milk (1 hr at room temperature). The membrane was incubated with primary antibody (tau5 antibody 1:1000), dissolved in 5% milk in blocking solution (12 hours at 4 C). The membrane was then washed three times with the blocking solution (3×10 min), incubated with secondary antibody conjugated with horseradish peroxidase (HRP) (1 hr at room temperature) and washed again three times with blocking solution (10 min×3). The membrane was incubated with ECL reagent (Western blotting detection system; Amersham Biosciences) for 1 min, covered and exposed Biomax Light Film (Kodak, Rochester, N.Y., USA).", "data": [{"binder": "B1", "values": [{"measurement": "binding result", "value": "no binding"}]}]}
